According to the supplement of paper PMC10065799, “High-throughput profiling of sequence recognition by tyrosine kinases and SH2 domains using bacterial peptide display” (eLife, 2023):

The sequences below were run on c-Src (assay: phosphorylation enrichment, bacterial display (enrichment ratio); higher = better substrate or ligand; peptides without Tyr show the background).
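Further: 11-residue human phosphosite peptides and single-mutation variants displayed on the E. coli surface, counted by deep sequencing, each peptide's frequency after selection divided by its frequency in the unselected input library; frequency after pTyr selection over input frequency; kinase dosed for 20-30% of maximal phosphorylation in three min.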

| Sequence | phosphorylation enrichment |
| --- | --- |
| CERLPYDASKW [FLT1_Y815] | 0.464 |
| SAVTGYRVDVI [FN1_Y937] | 0.353 |
| LFPANYVAPMT [GRAP2_Y324] | 0.397 |
| IHETTHNSIMK [ACTA1_Y281_Y281H] | 0.262 |
| ENAGYYFQVSA | 0.444 |
| CGLPRYRWLTH [TSPAN12_Y143_Y138C] | 0.357 |
| PSPMPYAFCQM [FOXL2_Y215_S217F] | 1.99 |
| KMMGRYEMYAR [UPB1_Y362_T359M] | 0.414 |
| PIPAAYNKYDQ [CDC73_Y290_R292K] | 0.689 |
| RLDGEYFTLQI [TP53_Y327_P322R] | 2.16 |
| SSPRRYTIAAL [TTR_Y125_G121S] | 0.312 |
| RRVLVYGDRGA [QDPR_Y16_G18D] | 0.573 |
| HICTAYKLVLA [DHCR24_Y190_E191K] | 1.34 |
| TTPYNYSYIFK [RAB14_Y8_A4T] | 0.712 |
| KNEKVYTRHGV [FLOT1_Y56_S52N] | 0.357 |
| KDPPDYKFQPR [SOX9_Y172_H169P_YF] | 0.43 |
| TSNQEYLYLSM [FGFR1_Y766_D768Y] | 2.88 |
| HTLQLYRCREE [ALPK3_Y342] | 0.603 |
| ELTAKYLNFFQ [P3H4_Y181_YF] | 0.454 |
| QADIIYVNTQL [MERTK_Y872_V870I] | 1.24 |
| YSTDYYRVGGH [NTRK2_Y707] | 2.22 |
| ARAFIYAIIPA [ACKtide_2014] | 3.54 |
| GRVLGYGAFRK [FLT4_Y853_G857R] | 0.52 |
| GSIQQYTFKQE [PRG4_Y1271_I1272T_YF] | 0.356 |
| ISSLPYMKMIF [SLC4A11_Y853_M848I] | 0.79 |
| GLSDPYVKIHL [SYT2_Y309] | 0.376 |
| IALNSYHSRNC [IFNGR1_Y397] | 0.4 |
| VRFMAYTDETC [F8_Y450_F455C] | 0.413 |
| PSRKDYETYQS [CTNND2_Y1154_P1159S] | 0.948 |

What follows are sequences tested against EPHB1 (UniProt P54762) in the same assay as above.
Sequence of EPHB1 (P54762 whole entry, looked up): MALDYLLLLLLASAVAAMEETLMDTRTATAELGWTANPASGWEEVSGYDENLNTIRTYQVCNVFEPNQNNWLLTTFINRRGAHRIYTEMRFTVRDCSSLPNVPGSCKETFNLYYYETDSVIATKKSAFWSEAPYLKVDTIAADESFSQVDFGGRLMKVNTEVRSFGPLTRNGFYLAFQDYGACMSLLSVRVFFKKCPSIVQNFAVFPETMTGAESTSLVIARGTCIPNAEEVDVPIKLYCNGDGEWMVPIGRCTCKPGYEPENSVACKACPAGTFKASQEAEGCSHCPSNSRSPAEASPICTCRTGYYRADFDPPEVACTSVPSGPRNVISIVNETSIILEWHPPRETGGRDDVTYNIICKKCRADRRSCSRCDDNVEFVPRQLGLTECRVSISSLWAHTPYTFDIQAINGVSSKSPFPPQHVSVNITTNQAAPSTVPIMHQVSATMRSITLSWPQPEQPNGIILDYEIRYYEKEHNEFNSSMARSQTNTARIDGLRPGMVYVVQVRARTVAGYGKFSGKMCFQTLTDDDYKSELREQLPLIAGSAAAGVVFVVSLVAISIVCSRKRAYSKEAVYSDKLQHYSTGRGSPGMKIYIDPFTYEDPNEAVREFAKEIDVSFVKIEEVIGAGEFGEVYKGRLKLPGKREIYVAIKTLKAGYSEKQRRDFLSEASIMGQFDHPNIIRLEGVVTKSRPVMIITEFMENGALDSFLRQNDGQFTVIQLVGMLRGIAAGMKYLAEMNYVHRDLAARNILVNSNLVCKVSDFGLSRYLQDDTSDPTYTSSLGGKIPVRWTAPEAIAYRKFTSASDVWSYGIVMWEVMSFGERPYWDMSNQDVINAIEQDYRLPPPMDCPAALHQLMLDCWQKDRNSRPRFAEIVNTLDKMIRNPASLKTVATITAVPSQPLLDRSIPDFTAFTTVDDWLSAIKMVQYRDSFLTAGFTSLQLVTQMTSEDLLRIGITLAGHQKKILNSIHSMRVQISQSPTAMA

| Sequence | phosphorylation enrichment |
| --- | --- |
| CERLPYDASKW [FLT1_Y815] | 0.589 |
| SAVTGYRVDVI [FN1_Y937] | 0.368 |
| LFPANYVAPMT [GRAP2_Y324] | 3.55 |
| IHETTHNSIMK [ACTA1_Y281_Y281H] | 0.304 |
| ENAGYYFQVSA | 0.578 |
| CGLPRYRWLTH [TSPAN12_Y143_Y138C] | 0.47 |
| PSPMPYAFCQM [FOXL2_Y215_S217F] | 1.3 |
| KMMGRYEMYAR [UPB1_Y362_T359M] | 0.374 |
| PIPAAYNKYDQ [CDC73_Y290_R292K] | 0.417 |
| RLDGEYFTLQI [TP53_Y327_P322R] | 0.748 |
| SSPRRYTIAAL [TTR_Y125_G121S] | 0.303 |
| RRVLVYGDRGA [QDPR_Y16_G18D] | 0.34 |
| HICTAYKLVLA [DHCR24_Y190_E191K] | 1.49 |
| TTPYNYSYIFK [RAB14_Y8_A4T] | 9.01 |
| KNEKVYTRHGV [FLOT1_Y56_S52N] | 0.243 |
| KDPPDYKFQPR [SOX9_Y172_H169P_YF] | 0.343 |
| TSNQEYLYLSM [FGFR1_Y766_D768Y] | 2.28 |
| HTLQLYRCREE [ALPK3_Y342] | 0.499 |
| ELTAKYLNFFQ [P3H4_Y181_YF] | 0.564 |
| QADIIYVNTQL [MERTK_Y872_V870I] | 1.18 |
| YSTDYYRVGGH [NTRK2_Y707] | 5.71 |
| ARAFIYAIIPA [ACKtide_2014] | 5.28 |
| GRVLGYGAFRK [FLT4_Y853_G857R] | 0.44 |
| GSIQQYTFKQE [PRG4_Y1271_I1272T_YF] | 0.484 |
| ISSLPYMKMIF [SLC4A11_Y853_M848I] | 0.536 |
| GLSDPYVKIHL [SYT2_Y309] | 0.425 |
| IALNSYHSRNC [IFNGR1_Y397] | 0.383 |
| VRFMAYTDETC [F8_Y450_F455C] | 0.649 |
| PSRKDYETYQS [CTNND2_Y1154_P1159S] | 0.827 |

The sequences below were run against Jak2 (UniProt O60674) in the same assay as above.
Sequence of Jak2 (O60674 whole entry, looked up): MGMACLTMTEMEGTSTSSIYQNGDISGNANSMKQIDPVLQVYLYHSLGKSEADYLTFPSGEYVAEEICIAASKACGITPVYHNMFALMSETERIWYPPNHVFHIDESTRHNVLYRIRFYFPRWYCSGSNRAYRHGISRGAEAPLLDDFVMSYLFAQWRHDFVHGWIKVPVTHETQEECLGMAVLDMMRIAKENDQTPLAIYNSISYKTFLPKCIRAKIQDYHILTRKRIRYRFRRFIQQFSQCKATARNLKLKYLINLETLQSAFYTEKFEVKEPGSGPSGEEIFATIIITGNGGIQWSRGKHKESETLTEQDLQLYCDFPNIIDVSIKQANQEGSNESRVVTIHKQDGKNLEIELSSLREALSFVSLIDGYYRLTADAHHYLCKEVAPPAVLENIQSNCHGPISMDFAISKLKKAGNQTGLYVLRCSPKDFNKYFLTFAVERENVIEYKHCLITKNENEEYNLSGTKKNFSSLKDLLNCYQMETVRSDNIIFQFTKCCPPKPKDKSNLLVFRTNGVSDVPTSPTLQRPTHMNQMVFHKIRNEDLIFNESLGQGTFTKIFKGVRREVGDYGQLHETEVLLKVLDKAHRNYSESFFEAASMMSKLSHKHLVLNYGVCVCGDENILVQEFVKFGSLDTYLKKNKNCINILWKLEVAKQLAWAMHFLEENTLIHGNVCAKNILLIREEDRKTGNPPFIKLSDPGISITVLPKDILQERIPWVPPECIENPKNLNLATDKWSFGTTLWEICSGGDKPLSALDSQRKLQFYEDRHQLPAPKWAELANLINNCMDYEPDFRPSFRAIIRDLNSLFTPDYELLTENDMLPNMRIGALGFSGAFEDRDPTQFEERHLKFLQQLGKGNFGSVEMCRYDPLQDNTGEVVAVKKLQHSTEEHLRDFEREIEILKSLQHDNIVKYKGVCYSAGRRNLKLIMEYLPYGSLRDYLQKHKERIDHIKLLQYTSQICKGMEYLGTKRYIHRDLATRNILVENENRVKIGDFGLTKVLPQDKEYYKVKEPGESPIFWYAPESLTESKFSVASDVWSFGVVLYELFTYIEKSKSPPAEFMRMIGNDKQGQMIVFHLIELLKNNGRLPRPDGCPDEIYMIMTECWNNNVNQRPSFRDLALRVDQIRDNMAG

| Sequence | phosphorylation enrichment |
| --- | --- |
| CERLPYDASKW [FLT1_Y815] | 1.01 |
| SAVTGYRVDVI [FN1_Y937] | 0.616 |
| LFPANYVAPMT [GRAP2_Y324] | 0.649 |
| IHETTHNSIMK [ACTA1_Y281_Y281H] | 0.471 |
| ENAGYYFQVSA | 1.43 |
| CGLPRYRWLTH [TSPAN12_Y143_Y138C] | 0.669 |
| PSPMPYAFCQM [FOXL2_Y215_S217F] | 1.75 |
| KMMGRYEMYAR [UPB1_Y362_T359M] | 0.966 |
| PIPAAYNKYDQ [CDC73_Y290_R292K] | 0.754 |
| RLDGEYFTLQI [TP53_Y327_P322R] | 2.46 |
| SSPRRYTIAAL [TTR_Y125_G121S] | 0.356 |
| RRVLVYGDRGA [QDPR_Y16_G18D] | 0.485 |
| HICTAYKLVLA [DHCR24_Y190_E191K] | 1.88 |
| TTPYNYSYIFK [RAB14_Y8_A4T] | 0.655 |
| KNEKVYTRHGV [FLOT1_Y56_S52N] | 0.392 |
| KDPPDYKFQPR [SOX9_Y172_H169P_YF] | 0.719 |
| TSNQEYLYLSM [FGFR1_Y766_D768Y] | 3.5 |
| HTLQLYRCREE [ALPK3_Y342] | 0.574 |
| ELTAKYLNFFQ [P3H4_Y181_YF] | 0.908 |
| QADIIYVNTQL [MERTK_Y872_V870I] | 1.05 |
| YSTDYYRVGGH [NTRK2_Y707] | 8.96 |
| ARAFIYAIIPA [ACKtide_2014] | 1.86 |
| GRVLGYGAFRK [FLT4_Y853_G857R] | 0.539 |
| GSIQQYTFKQE [PRG4_Y1271_I1272T_YF] | 0.641 |
| ISSLPYMKMIF [SLC4A11_Y853_M848I] | 1.35 |
| GLSDPYVKIHL [SYT2_Y309] | 0.787 |
| IALNSYHSRNC [IFNGR1_Y397] | 0.521 |
| VRFMAYTDETC [F8_Y450_F455C] | 1.05 |
| PSRKDYETYQS [CTNND2_Y1154_P1159S] | 0.94 |

What follows are sequences tested against MERTK (UniProt Q12866) in the same assay as above.
Sequence of MERTK (Q12866 whole entry, looked up): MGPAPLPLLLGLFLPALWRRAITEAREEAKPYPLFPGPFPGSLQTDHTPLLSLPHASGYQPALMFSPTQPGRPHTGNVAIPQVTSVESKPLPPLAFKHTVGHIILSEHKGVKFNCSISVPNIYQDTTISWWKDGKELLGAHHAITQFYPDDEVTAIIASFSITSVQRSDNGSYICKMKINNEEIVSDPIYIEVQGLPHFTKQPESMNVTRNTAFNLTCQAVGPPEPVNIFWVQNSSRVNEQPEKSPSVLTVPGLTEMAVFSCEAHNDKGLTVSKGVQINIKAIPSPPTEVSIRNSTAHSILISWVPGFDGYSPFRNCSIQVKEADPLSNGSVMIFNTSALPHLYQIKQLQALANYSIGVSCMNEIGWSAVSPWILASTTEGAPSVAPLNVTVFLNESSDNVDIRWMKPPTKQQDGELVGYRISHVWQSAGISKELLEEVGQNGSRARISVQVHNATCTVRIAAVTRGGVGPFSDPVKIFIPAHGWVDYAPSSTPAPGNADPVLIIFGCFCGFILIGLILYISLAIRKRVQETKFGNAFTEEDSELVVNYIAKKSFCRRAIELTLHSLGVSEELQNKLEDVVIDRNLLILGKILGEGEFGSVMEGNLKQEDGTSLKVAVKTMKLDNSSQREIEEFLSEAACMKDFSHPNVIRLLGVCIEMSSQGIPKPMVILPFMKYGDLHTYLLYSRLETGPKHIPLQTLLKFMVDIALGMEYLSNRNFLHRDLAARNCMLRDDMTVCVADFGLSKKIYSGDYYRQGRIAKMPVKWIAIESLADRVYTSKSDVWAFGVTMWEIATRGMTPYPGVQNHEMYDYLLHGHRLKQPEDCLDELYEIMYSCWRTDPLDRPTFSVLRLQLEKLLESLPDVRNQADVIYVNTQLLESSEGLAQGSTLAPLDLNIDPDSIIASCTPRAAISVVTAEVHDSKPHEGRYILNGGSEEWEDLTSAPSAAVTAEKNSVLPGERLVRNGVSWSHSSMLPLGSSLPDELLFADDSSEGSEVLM

| Sequence | phosphorylation enrichment |
| --- | --- |
| CERLPYDASKW [FLT1_Y815] | 0.409 |
| SAVTGYRVDVI [FN1_Y937] | 0.358 |
| LFPANYVAPMT [GRAP2_Y324] | 0.551 |
| IHETTHNSIMK [ACTA1_Y281_Y281H] | 0.38 |
| ENAGYYFQVSA | 0.602 |
| CGLPRYRWLTH [TSPAN12_Y143_Y138C] | 0.461 |
| PSPMPYAFCQM [FOXL2_Y215_S217F] | 1.41 |
| KMMGRYEMYAR [UPB1_Y362_T359M] | 0.543 |
| PIPAAYNKYDQ [CDC73_Y290_R292K] | 0.617 |
| RLDGEYFTLQI [TP53_Y327_P322R] | 0.538 |
| SSPRRYTIAAL [TTR_Y125_G121S] | 0.34 |
| RRVLVYGDRGA [QDPR_Y16_G18D] | 0.48 |
| HICTAYKLVLA [DHCR24_Y190_E191K] | 0.832 |
| TTPYNYSYIFK [RAB14_Y8_A4T] | 5.37 |
| KNEKVYTRHGV [FLOT1_Y56_S52N] | 0.375 |
| KDPPDYKFQPR [SOX9_Y172_H169P_YF] | 0.461 |
| TSNQEYLYLSM [FGFR1_Y766_D768Y] | 5.28 |
| HTLQLYRCREE [ALPK3_Y342] | 0.607 |
| ELTAKYLNFFQ [P3H4_Y181_YF] | 0.385 |
| QADIIYVNTQL [MERTK_Y872_V870I] | 0.571 |
| YSTDYYRVGGH [NTRK2_Y707] | 9.44 |
| ARAFIYAIIPA [ACKtide_2014] | 6.87 |
| GRVLGYGAFRK [FLT4_Y853_G857R] | 0.482 |
| GSIQQYTFKQE [PRG4_Y1271_I1272T_YF] | 0.322 |
| ISSLPYMKMIF [SLC4A11_Y853_M848I] | 0.668 |
| GLSDPYVKIHL [SYT2_Y309] | 0.397 |
| IALNSYHSRNC [IFNGR1_Y397] | 0.469 |
| VRFMAYTDETC [F8_Y450_F455C] | 0.431 |
| PSRKDYETYQS [CTNND2_Y1154_P1159S] | 0.474 |
